Source: article doi:10.64898/2025.12.19.695423

Molecular target: Huntingtin Exon 1 with 44 glutamines (HttEx1Q44) amyloid fibrils
Assay: MST

E3 ubiquitin ligase CHIP (from UniProt Q9UNE7 1-303) (enzyme)
K app with FP20: 170 nM | Kd: 460 nM
